Substrate in series [1]: CCO
Nature of the series: purified protein. The following applies: 100 mM glycine-NaOH pH 10, 2.4 mM NAD+, 30 °C, oxidation.

Substrate in series [2]: OCCO
Nature of the series: purified protein. The series is classed as biochemical, Paracoccus denitrificans. As to conditions: 100 mM glycine-NaOH pH 10, 2.4 mM NAD+, 30 °C, oxidation.

Substrate in series [3]: CC=O
Nature of the series: purified protein. The series is classed as biochemical, Paracoccus denitrificans. The following applies: 30 °C.

Substrate in series [4]: CCCO
Nature of the series: purified protein. The format is biochemical, Paracoccus denitrificans. As to conditions: 100 mM glycine-NaOH pH 10, 2.4 mM NAD+, 30 °C, oxidation.

Substrate in series [5]: CC(O)CO
Nature of the series: purified protein. The format is biochemical, Paracoccus denitrificans. The following applies: 100 mM glycine-NaOH pH 10, 2.4 mM NAD+, 30 °C, oxidation.

Substrate in series [6]: O=CCO
Put plainly: purified protein. The format is biochemical, Paracoccus denitrificans. The following applies: 30 °C.

Substrate in series [7]: CCCCO
Nature of the series: purified protein. The series is classed as biochemical, Paracoccus denitrificans. As to conditions: 100 mM glycine-NaOH pH 10, 2.4 mM NAD+, 30 °C, oxidation.

Series [8] concerns the molecule itself. Put plainly: cryo-EM structure; protein purified by Ni-NTA and size exclusion in buffer C (100 mM sodium chloride, 25 mM potassium phosphate pH 8.0, 1 mM DTT); Titan Krios 300 kV, K3 detector; processed in RELION-5.0; homo-oligomer seen in the map.
Setting [9] is: 100 mM potassium phosphate pH 7.5, 0.2 mM NADH, reduction.
[10] abbreviates: 100 mM potassium phosphate pH 7.5, 2.4 mM NAD+, oxidation.

Changes are numbered by the printed parent chain. In names and notes the source's numbering stands.

B1: EtgB, NAD-dependent alcohol dehydrogenase (Pden_2367) (enzyme, Paracoccus denitrificans DSM 413)
chain: MAKTMKAAVVREFGKPLTIDEVPVPEPGPGMIQVRIQASGVCHTDLHAAEGDWPVKPNPPFIPGHEGVGFVSAVGAGVKHVKEGDRVGVPWLYTACGHCRHCLGGWETLCESQLNTGYSVNGGFADYVVADPNYVGHLPKNVDFLDIAPVLCAGVTVYKGLKVTDTKPGDWVVISGIGGLGHMAVQYAKAMGMNVAAVDIDDEKLALARKLGATVTVNAATEPDPAAAIRKQTDGGAQGVLVTAVGRKAFEQAIGMVARGGTVALNGLPPGDFPLDIFGMVLNGITVRGSIVGTRLDLQESLDFAGDGKVKATVHKAKLEDINNIFGQMHKGQIEGRMVLDMAG
notes: The enzyme holds zinc ions; also called EtgB WT; alcohol dehydrogenase EtgB; source: E. coli BL21 AI, purified (Ni-NTA, desalting, size exclusion on Superdex 200 Increase)
Turning to B1, the Km in series [1] amounted to 120 ± 10 µM; in series [2], 11050 ± 1320 µM; in series [3] (setting [9]), 40 ± 10 µM; in series [4], 110 ± 10 µM; in series [5] it was 59460 ± 3310 µM; in series [6] (setting [9]) it was 1040 ± 60 µM. The Km in series [7] was found to be 40 ± 10 µM. Moreover, the kcat in series [1] turned out to be 23.5 s⁻¹; in series [2], 7.2 ± 0.2 s⁻¹; in series [3] (setting [9]) it was 158 ± 2.9 s⁻¹; in series [4] it was 18.7 ± 0.5 s⁻¹; in series [5], 3.5 ± 0.1 s⁻¹; in series [6] (setting [9]) it was 50.1 ± 1.2 s⁻¹. For the same protein, the kcat in series [7] stood at 8.4 ± 0.1 s⁻¹. For the same protein, the kcat/Km in series [1] stood at 201000 M⁻¹ s⁻¹; in series [2], 651 ± 22 M⁻¹ s⁻¹; in series [3] (setting [9]) it was 3.84e+06 ± 240000 M⁻¹ s⁻¹; in series [4], 176000 ± 14000 M⁻¹ s⁻¹; in series [5], 59.6 ± 1 M⁻¹ s⁻¹; in series [6] (setting [9]), 48300 ± 3200 M⁻¹ s⁻¹. Moreover, the kcat/Km in series [7] was 213000 ± 14000 M⁻¹ s⁻¹. Further, the “stoichiometry N” value in series [8] turned out to be 4.

B2: EtgB (Paracoccus denitrificans PD1222; H47N/T44S) (protein)
chain: B1 chain with T44S, H47N
notes: pET16b, His-tagged, E. coli BL21 AI, Ni-NTA purified; homotetramer; zinc-dependent medium-chain alcohol dehydrogenase
As to B2, in series [1], the Km turned out to be 100 ± 20 µM, the kcat is 10.7 s⁻¹ and the kcat/Km was found to be 105000 M⁻¹ s⁻¹. Besides, in series [2], the Km stood at 11510 ± 1470 µM, the kcat came out at 2.9 ± 0.1 s⁻¹ and the kcat/Km turned out to be 251 ± 5 M⁻¹ s⁻¹. Moreover, in series [5], the Km is 19750 ± 2980 µM, the kcat amounted to 6.5 ± 0.2 s⁻¹ and the kcat/Km turned out to be 330 ± 11 M⁻¹ s⁻¹.

B3: EtgB (Paracoccus denitrificans PD1222; H47N) (protein)
chain: B1 chain with H47N
notes: as for B2
For the protein B3, in series [1], the Km was found to be 230 ± 10 µM, the kcat was 25.2 s⁻¹ and the kcat/Km was found to be 108000 M⁻¹ s⁻¹. Further, in series [2], the Km was 53690 ± 4040 µM, the kcat came out at 14.7 ± 0.3 s⁻¹ and the kcat/Km is 274 ± 6 M⁻¹ s⁻¹. In series [5], the Km came to 67180 ± 8900 µM, the kcat was determined as 13.2 ± 0.6 s⁻¹ and the kcat/Km came out at 197 ± 8 M⁻¹ s⁻¹.

B4: EtgB (Paracoccus denitrificans PD1222; T44S) (protein)
chain: B1 chain with T44S
notes: as for B2
Take B4: the results for the Km in series [1], in series [2] and in series [5] were 100 ± 20 µM, 10170 ± 360 µM and 27680 ± 1730 µM, respectively. Also, the kcat was found to be 3.2 s⁻¹ in series [1], 0.7 ± 0.1 s⁻¹ in series [2] and 1.6 ± 0.1 s⁻¹ in series [5]. Besides, the kcat/Km in series [1] turned out to be 33200 M⁻¹ s⁻¹; in series [2] it was 70.2 ± 2.6 M⁻¹ s⁻¹; in series [5], 57.8 ± 0.7 M⁻¹ s⁻¹.

B5: EtgA, NAD-dependent aldehyde dehydrogenase (Pden_2366) (enzyme, Paracoccus denitrificans DSM 413)
chain: MPNDQTHPFRGVNALPFEERYDNFIGGEWVAPVSGRYFTNTTPITGAEIGQIARSEAGDIELALDAAHAAKEKWGATSPAERANIMLKIADRMERNLELLATAETWDNGKPIRETMAADLPLAIDHFRYFAGVLRAQEGSISQIDDDTVAYHFHEPLGVVGQIIPWNFPLLMACWKLAPAIAAGNCVVLKPAEQTPAGIMVWANLIGDLLPPGVLNIVNGFGLEAGKPLASSNRIAKIAFTGETTTGRLIMQYASENLIPVTLELGGKSPNIFFADVAREDDDFFDKALEGFTMFALNQGEVCTCPSRVLIQESIYDKFMERAVQRVQAIKQGDPRESDTMIGAQASSEQKEKILSYLDIGKKEGAEVLTGGKAADLGGELSGGYYIEPTIFRGNNKMRIFQEEIFGPVVSVTTFKDQAEALEIANDTLYGLGAGVWSRDANTCYRMGRGIKAGRVWTNCYHAYPAHAAFGGYKQSGIGRETHKMMLDHYQQTKNMLVSYSPKKLGFF
notes: EtgA, NAD-dependent aldehyde dehydrogenase of Paracoccus denitrificans DSM 413, gene Pden_2366 amplified from genomic DNA and cloned into pET16b; also called aldehyde dehydrogenase EtgA; source: E. coli BL21 AI, purified (Ni-NTA, desalting, size exclusion on Superdex 200 Increase)
With B5, in series [3] (setting [10]), the Km was 9 ± 1 µM, the kcat was 1.3 ± 0.1 s⁻¹ and the catalytic efficiency (kcat/Km) turned out to be 135000 ± 21000 M⁻¹ s⁻¹. In series [6] (setting [10]), the Km came out at 120 ± 10 µM, the kcat was 6.3 ± 0.2 s⁻¹ and the kcat/Km amounted to 51300 ± 4900 M⁻¹ s⁻¹. The “stoichiometry N” value in series [8] amounted to 4.

For the origin of these results see article PMC12214560, “NAD-dependent dehydrogenases enable efficient growth of Paracoccus denitrificans on the PET monomer ethylene glycol” (Nature Communications, 2025).
